This assay addresses T1, human CD40 expressed on CHO cells (human, UniProt P25942 21-277).
T1 construct: whole, on cells; also used for the reporter cells over-expressing human CD40; also called cellular CD40; CHO-CD40 cells
In words: FACS, CHO cells. In general terms: A flow cytometer gives signals particle by particle.

Changes are numbered by the printed parent chain.

T1 sequence (P25942 21-277): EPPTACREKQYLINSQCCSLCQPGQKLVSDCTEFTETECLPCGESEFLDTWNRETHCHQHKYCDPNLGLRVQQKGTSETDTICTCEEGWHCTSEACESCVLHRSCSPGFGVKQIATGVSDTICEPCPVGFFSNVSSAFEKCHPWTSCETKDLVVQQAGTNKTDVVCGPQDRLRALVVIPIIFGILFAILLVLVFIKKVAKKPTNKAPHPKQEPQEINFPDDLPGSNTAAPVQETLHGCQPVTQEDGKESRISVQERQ

B1: TM559 (antibody, human IgG2, kappa)
heavy: EVQLVESGGGLVQPGGSLRLSCAASGFTFTNYGLHWVRQAPGKGLEWVSSISPSGGVTYYRDSVKGRFTISRDNSKNTLYLQMNSLRAEDTAVYYCAKPFLGWGGANWIAHWGQGTLVTVSSASTKGPSVFPLAPCSRSTSESTAALGCLVKDYFPEPVTVSWNSGALTSGVHTFPAVLQSSGLYSLSSVVTVPSSNFGTQTYTCNVDHKPSNTKVDKTVERKCCVECPPCPAPPVAGPSVFLFPPKPKDTLMISRTPEVTCVVVDVSHEDPEVQFNWYVDGVEVHNAKTKPREEQFNSTFRVVSVLTVVHQDWLNGKEYKCKVSNKGLPAPIEKTISKTKGQPREPQVYTLPPSREEMTKNQVSLTCLVKGFYPSDIAVEWESNGQPENNYKTTPPMLDSDGSFFLYSKLTVDKSRWQQGNVFSCSVMHEALHNHYTQKSLSLSPG
light: DIQMTQSPSSLSASVGDRVTITCLASEDISNDLAWYQQKPGKAPKLLIYFVDRLLDGVPSRFSGSGSGTDFTLTISSLQPEDFATYYCQQSYKYPPTFGQGTKLEIKRTVAAPSVFIFPPSDEQLKSGTASVVCLLNNFYPREAKVQWKVDNALQSGNSQESVTEQDSKDSTYSLSSTLTLSKADYEKHKVYACEVTHQGLSSPVTKSFNRGEC
notes: LYV378_VH-1/IgG2, LYV378_VL-1/kappa
Turning to B1, the binding result is given as “binds”.

B2: LP3782 (antibody, human IgG4 S228P, kappa)
heavy: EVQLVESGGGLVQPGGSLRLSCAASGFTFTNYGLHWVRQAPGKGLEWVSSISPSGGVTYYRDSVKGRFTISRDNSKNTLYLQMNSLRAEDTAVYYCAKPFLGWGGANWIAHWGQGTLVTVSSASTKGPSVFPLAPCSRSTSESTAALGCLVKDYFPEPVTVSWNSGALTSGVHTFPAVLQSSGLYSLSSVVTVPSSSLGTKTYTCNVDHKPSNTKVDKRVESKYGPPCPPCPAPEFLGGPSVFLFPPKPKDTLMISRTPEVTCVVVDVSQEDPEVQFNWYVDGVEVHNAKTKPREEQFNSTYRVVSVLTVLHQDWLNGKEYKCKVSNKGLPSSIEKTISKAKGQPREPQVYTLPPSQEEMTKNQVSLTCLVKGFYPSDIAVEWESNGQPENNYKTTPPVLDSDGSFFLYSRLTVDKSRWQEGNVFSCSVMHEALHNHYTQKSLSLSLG
light: B1 light
notes: LYV378_VH-1/IgG4, LYV378_VL-1/kappa; also called TM3782
B2: the binding result is on record as “binds”.

B3: LP3783 (antibody, human IgG1, kappa)
heavy: EVQLVESGGGLVQPGGSLRLSCAASGFTFTNYGLHWVRQAPGKGLEWVSSISPSGGVTYYRDSVKGRFTISRDNSKNTLYLQMNSLRAEDTAVYYCAKPFLGWGGANWIAHWGQGTLVTVSSASTKGPSVFPLAPSSKSTSGGTAALGCLVKDYFPEPVTVSWNSGALTSGVHTFPAVLQSSGLYSLSSVVTVPSSSLGTQTYICNVNHKPSNTKVDKKVEPKSCDKTHTCPPCPAPELLGPSVFLFPPKPKDTLMISRTPEVTCVVVDVEHEDPEVKFNWYVDGVEVHNAKTKPREEQYNSTYRVVSVLTVLHQDWLNGKEYKCKVSNKALPAPIEKTISKAKGQPREPQVYTLPPSREEMTKNQVSLTCLVKGFYPSDIAVEWESNGQPENNYKTTPPVLDSDGSFFLYSKLTVDKSRWQQGNVFSCSVMHEALHNHYTQKSLSLSPG
light: B1 light
notes: LYV378_VH-1/IgG1mut, LYV378_VL-1/kappa; also called TM3783; Ly3783
Take B3: the binding result was “binds”.

B4: LP3781 (antibody, human IgG1, kappa)
heavy: not shown
light: B1 light
notes: LYV378_VH-1/IgG1, LYV378_VL-1/kappa; also called TM3781
As for B4, the binding result is recorded as “binds”.

B5: TM553 (antibody, human IgG2, kappa)
heavy: QVQLVESGGGLVQPGGSLKLSCATSGFNFNDSFMNWVRQASGKGLEWVGQIRNKNYNYATYYTESLEGRVTISRDDSKNTAYLQMNSLKTEDTAVYYCTSYYYDGFADYFDYWGQGTTVTVSSASTKGPSVFPLAPCSRSTSESTAALGCLVKDYFPEPVTVSWNSGALTSGVHTFPAVLQSSGLYSLSSVVTVPSSNFGTQTYTCNVDHKPSNTKVDKTVERKCCVECPPCPAPPVAGPSVFLFPPKPKDTLMISRTPEVTCVVVDVSHEDPEVQFNWYVDGVEVHNAKTKPREEQFNSTFRVVSVLTVVHQDWLNGKEYKCKVSNKGLPAPIEKTISKTKGQPREPQVYTLPPSREEMTKNQVSLTCLVKGFYPSDIAVEWESNGQPENNYKTTPPMLDSDGSFFLYSKLTVDKSRWQQGNVFSCSVMHEALHNHYTQKSLSLSPG
light: DIQMTQSPSSLSASVGDRVTITCKASQNIYIYLNWYQQKPGKAPKLLIYNTNNLQTGVPSRFSGSGSGTDFTLTISSLQPEDFATYYCLQHSSRRTFGGGTKVEIKRTVAAPSVFIFPPSDEQLKSGTASVVCLLNNFYPREAKVQWKVDNALQSGNSQESVTEQDSKDSTYSLSSTLTLSKADYEKHKVYACEVTHQGLSSPVTKSFNRGEC
notes: VH-2/IgG2, VL-1/kappa
For the molecule B5, the binding result was “binds”.

B6: LP3773 (antibody, human IgG1, kappa)
heavy: QVQLVESGGGLVQPGGSLKLSCATSGFNFNDSFMNWVRQASGKGLEWVGQIRNKNYNYATYYTESLEGRVTISRDDSKNTAYLQMNSLKTEDTAVYYCTSYYYDGFADYFDYWGQGTTVTVSSASTKGPSVFPLAPSSKSTSGGTAALGCLVKDYFPEPVTVSWNSGALTSGVHTFPAVLQSSGLYSLSSVVTVPSSSLGTQTYICNVNHKPSNTKVDKKVEPKSCDKTHTCPPCPAPELLGPSVFLFPPKPKDTLMISRTPEVTCVVVDVEHEDPEVKFNWYVDGVEVHNAKTKPREEQYNSTYRVVSVLTVLHQDWLNGKEYKCKVSNKALPAPIEKTISKAKGQPREPQVYTLPPSREEMTKNQVSLTCLVKGFYPSDIAVEWESNGQPENNYKTTPPVLDSDGSFFLYSKLTVDKSRWQQGNVFSCSVMHEALHNHYTQKSLSLSPG
light: B5 light
notes: VH-2/IgG1mut, VL-1/kappa
With B6, the binding result was “binds”.

B7: TM738 (antibody, human IgG1, kappa, V domains shown)
VH: QVQLVESGGGLVQPGGSLKLSCATSGFNFQDSFMNWVRQASGKGLEWVGQIRNKNYNYATYYTESLEGRVTISRDDSKNTAYLQMNSLKTEDTAVYYCTSYYYDGFADYFDYWGQGTTVTVSS
VL: DIQMTQSPSSLSASVGDRVTITCKASQNIYIYLNWYQQKPGKAPKLLIYNTNNLQTGVPSRFSGSGSGTDFTLTISSLQPEDFATYYCLQHSSRRTFGGGTKVEIKR
notes: VH-2Q/IgG1mut, VL-1/kappa
Take B7: the binding result is “binds”.

B8: Ly181 (antibody, human IgG2, kappa)
heavy: B5 heavy with S32Y
light: B5 light
notes: VH-2Y/IgG2, VL-1/kappa
Consider B8, for which the binding result is recorded as “binds”.

B9: TM740 (antibody, human IgG1, kappa)
heavy: B6 heavy with S32Y
light: B5 light
notes: VH-2Y/IgG1mut, VL-1/kappa
On to B9, for which the binding result was “binds”.

B10: TM550 (antibody, human IgG2, kappa, V domains shown)
VH: B7 VH with Q1E, T24A, Q30N, V70F, S100R
VL: B7 VL
notes: CDR grafted humanized LYV377
In the case of B10, the binding result is listed as “binds”.

B11: TM739 (antibody, human IgG1, kappa, V domains shown)
VH: B7 VH with Q30N, S32A
VL: B7 VL
notes: VH-2A/IgG1mut, VL-1/kappa
B11: the binding result is “binds”.

B12: TM378 (antibody, human IgG4 S228P, kappa, V domains shown)
VH: EVHLVESGGGLVQPGRSLKLSCAASGFTFTNYGLHWIRQAPTKGLEWVASISPSGGVTYYRDSVKGRFTISRDNGKTTLHLQMDSLRSEDTATYYCALPFLGWGGANWIAHWGQGTLVTVSS
VL: DIQMTQSPASLSASLGETVSIECLASEDISNDLAWYQQKSGKSPQLLIYFVDRLLDGVPSRFSGSGSGTRHSLKISGMQPEDEADYFCQQSYKYPPTFGGGTKLELKR
notes: chimeric LYV378, human IgG4; also called chimeric counterpart TM378
B12: the binding result was “binds”.

B13: Ly401 (bispecific antibody, human IgG1, kappa)
heavy: EVQLVESGGGVVQPGRSLRLSCSASGFDFTTYWMSWVRQAPGKGLEWIGEIHPDSSTINYAPSLKDRFTISRDNAKNTLFLQMDSLRPEDTGVYFCASLYFGFPWFAYWGQGTPVTVSSASTKGPSVFPLAPSSKSTSGGTAALGCLVKDYFPEPVTVSWNSGALTSGVHTFPAVLQSSGLYSLSSVVTVPSSSLGTQTYICNVNHKPSNTKVDKKVEPKSCDKTHTCPPCPAPELLGPSVFLFPPKPKDTLMISRTPEVTCVVVDVSHEDPEVKFNWYVDGVEVHNAKTKPREEQYNSTYRVVSVLTVLHQDWLNGKEYKCKVSNKALPAPIEKTISKAKGQPREPQVYTLPPSREEMTKNQVSLTCLVKGFYPSDIAVEWESNGQPENNYKTTPPVLDSDGSFFLYSKLTVDKSRWQQGNVFSCSVMHEALHNHYTQKSLSLSPGGGGGSGGGGSGGGGSGGGGSDIQMTQSPSSLSASVGDRVTITCKASQNIYIYLNWYQQKPGKAPKLLIYNTNNLQTGVPSRFSGSGSGTDFTLTISSLQPEDFATYYCLQHSSRRTFGGGTKVEIKGGGGSGGGGSGGGGSGGGGSQVQLVESGGGLVQPGGSLKLSCATSGFNFNDYFMNWVRQASGKGLEWVGQIRNKNYNYATYYTESLEGRVTISRDDSKNTAYLQMNSLKTEDTAVYYCTSYYYDGFADYFDYWGQGTTVTVSS
light: DIQLTQSPSSLSASVGDRVTITCKASQDVGTSVAWYQQKPGKAPKLLIYWTSTRHTGVPSRFSGSGSGTDFTFTISSLQPEDIATYYCQQYSLYRSFGQGTKVEIKRTVAAPSVFIFPPSDEQLKSGTASVVCLLNNFYPREAKVQWKVDNALQSGNSQESVTEQDSKDSTYSLSSTLTLSKADYEKHKVYACEVTHQGLSSPVTKSFNRGEC
notes: Ly311 HC (IgG1 mutated Fc)-TM740 scFv VL-VH + Ly311 LC
B13: the binding result was “binds”.

The values above are taken from patent US20220372155A1 (LYVGEN BIOPHARMA, published 2022).
